From doi:10.1101/2025.05.01.651538
Blank lines part the entries; values can stand above or below the substance they belong to.

Key:
KDM5ACAT = test: EMSA; conditions: Nucleosome EMSA: 100 nM nucleosome, 50 mM HEPES pH 7.5, 50 mM KCl, 1 mM BME, 0.01% Tween-20, 0.01% BSA, 5% sucrose, 1 h on ice, DNA EMSA: 100 nM DNA, TE …
[1] = biological target: acidic patch mutant (APM) H3K4me3 147bp nucleosome (human)
[2] = biological target: acidic patch mutant (APM) H3K4me3 147bp nucleosome (human); test: native gel or EMSA; direct binding: 100 nM nucleosome, varying concentrations of KDM5A; 50 mM HEPES pH 7.5, 50 mM KCl, 1 mM BME, 0.01% Tween-20, 0.01% BSA, 5% sucrose; 1 hour on ice; 7.5% gel at 4°C, SYBR gold; fit with Hill slope
[3] = biological target: acidic patch mutant (APM) unmodified 147bp nucleosome (H2A E61A, E64S, N68A, D72S, N89A, D90A, E91S) (human); test: as above
[4] = biological target: acidic patch mutant (APM) unmodified 147bp nucleosome (H2A E61A, E64S, N68A, D72S, N89A, D90A, E91S); test: EMSA; conditions: 0-32 µM KDM5A^MutR titrated against APM 147bp nucleosome

Chain of KDM5A^CAT (KDM5A 1–801, minimal catalytically active construct) (P29375 1-801): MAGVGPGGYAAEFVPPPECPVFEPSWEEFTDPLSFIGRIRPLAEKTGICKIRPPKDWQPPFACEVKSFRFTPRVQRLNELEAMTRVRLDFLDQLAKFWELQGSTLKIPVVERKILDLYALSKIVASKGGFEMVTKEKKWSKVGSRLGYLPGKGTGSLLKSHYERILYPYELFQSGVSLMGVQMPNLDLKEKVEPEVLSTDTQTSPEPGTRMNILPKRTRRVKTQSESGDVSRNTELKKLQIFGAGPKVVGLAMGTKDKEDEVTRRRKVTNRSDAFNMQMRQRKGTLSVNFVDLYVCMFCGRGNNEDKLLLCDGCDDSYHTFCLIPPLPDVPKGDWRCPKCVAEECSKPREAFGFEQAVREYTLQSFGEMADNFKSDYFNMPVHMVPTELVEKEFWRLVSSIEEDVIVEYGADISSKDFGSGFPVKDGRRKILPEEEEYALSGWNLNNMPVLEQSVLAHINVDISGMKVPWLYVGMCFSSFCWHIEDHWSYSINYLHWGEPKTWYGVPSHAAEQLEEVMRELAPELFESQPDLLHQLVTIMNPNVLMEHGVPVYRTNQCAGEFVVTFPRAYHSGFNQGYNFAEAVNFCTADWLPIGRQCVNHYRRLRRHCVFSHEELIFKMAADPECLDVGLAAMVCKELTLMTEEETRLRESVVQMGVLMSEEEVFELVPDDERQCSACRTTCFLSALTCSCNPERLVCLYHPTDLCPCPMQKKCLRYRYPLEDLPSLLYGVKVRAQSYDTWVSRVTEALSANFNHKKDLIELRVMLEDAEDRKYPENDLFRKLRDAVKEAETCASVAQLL

Substance: 147bp APM nucleosome, unmodified
binding signal (KDM5ACAT; H2A E61A;E64S;N68A;D72S;N89A;D90A;E91S, scale: fold loss in affinity vs wild-type 147bp nucleosome): 3

Substance: 147bp nucleosome, wild-type unmodified
binding signal (KDM5ACAT; scale: fold higher affinity than APM 147bp nucleosome): 3

Substance: H3K4me3 APM nucleosome
binding signal (KDM5ACAT; H3K4me3, H2A E61A;E64S;N68A;D72S;N89A;D90A;E91S, scale: fold lower affinity vs wild-type H3K4me3 nucleosome): 2

fold decrease in demethylation of H3K4me3 on APM 147bp nucleosomes relative to wild-type nucleosomes, western blot, single turnover (5 μM KDM5A enzyme, 50 nM substrate) [1]: 9 fold
fold lower affinity relative to wild-type H3K4me3 nucleosome [2]: 2 fold
fold loss in affinity relative to wild-type 147bp nucleosome [3]: 3 fold
Substance: KDM5A^CAT (KDM5A 1–801, minimal catalytically active construct) (from UniProt P29375 1-801) (domain or fragment)

Kd [4]: 14 µM
Substance: KDM5A^CAT (KDM5A 1–801, minimal catalytically active construct) (from UniProt P29375) R210A; R217A; R219A; R220A; R232A; R264A; R265A; R266A; R271A; R280A; R282A
